From the nanobody polyreactivity screen of Harvey et al. (2022)

Assay: yeast display, Sf9 membrane polyspecificity reagent, FACS + sequencing; frameworks hold sequencing errors
Outline: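 Using colony PCR, genes from sorted yeast display clones were amplified, then sequenced on MiSeq at 2 × 250 and filtered by CDR length. The clones had been stained with 10% biotinylated, detergent-solubilized Sf9 membrane reagent for 1 hour at 4 °C and sorted by FACS into low and high (top ~1%) gates on anti-HA and streptavidin fluorescence. Polyreactivity labels come from the gate of origin.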

Sequence | polyreactivity (PSR sort gate)
QVQLVESGGGLVQAGRSLRLSCAASGFTFGYYAMGWYRQAPGKERELVASISITAGSTYYADSVKGRFTISRDNAKNTVYLQMNSLTPEDTAVYYCAAKRRTRQSYYTEYYWGQGTQVTVSS | high polyreactivity
QVQLVESGGGLVQAGRSLRLSCAASGFTFVWYAMGWYRQAPGTERELVAAISRRGTRTYYADSVKGRFTISRDNAKNTVYLQMNSLKPEDTAVYYCAASNGYQAVTYDYWGQGTQVTVSS | high polyreactivity
QVQLVESGGGLVQAGRSLRLSCAASGIISYRNGMGGYRQAPGKERELVASISKRADSTYYADSVKGRFTISRDNAKNTVYLQLNSLKPEDTAVYYCAARRLITCYGQTHYGYWGQGTQVTVSS | high polyreactivity
QVQLVESGGGLVQAGRSLRLSCAASGITFPVYPMGWYRQAPGKERELVATITSSGGRTYYADSVKGRFTISRDNAKNTVYLQMNSLKPEDSAVYYCAAANGKGQGGYDYWGHGTQVTVSS | high polyreactivity
QVQLVESGGGLVQAGRSLRLSCAASGLIFRYYPMGWYRQAPGKEREFVAAISGRGASTYYADSVKGRFTISRDYAKNSVYLQMNCLKPEDTAVYYCATFFPSAVVAFHMDYWGQGTQVTVSS | low polyreactivity
QVQLVESGGGLVQAGRSLRLSCAASGRIFFGYAMGWYRQAPGKERELVAVISSGCRTYYADSVKGRFTISRDNAKNTVYLQMNSLKAEDTAVYYCAAIIPPTKQRGYYYVGRSEYDYWGQGSQVTVSS | low polyreactivity
QVQLVESGGGLVQAGRSLRLSCAASGRIFQWNAMGWYRQAPGKERELVADITYSGSSTNYADSVKGRFTISRDNAKNSVYLQMNSVKPEVSAVYYCTRDFYQYLSYFWHYVYWGQGTQETVSS | low polyreactivity
QVQLVESGGGLVQAGRSLRLSCAASGRIFRSYAMGWYRQAAGKERELVAAINYSGGNTYYADSVKGRFTISRDNAKNTVYLQLNCVKPDDTAVFYCNARGYYYSSRYGYWGQGTQVTVSS | high polyreactivity
QVQLVESGGGLVQAGRSLRLSCAASGRTFCYYAMGLYRKAPGKERELIAAITNRGGNTYYADSVKGRFTISRDNAKNTVYLQMNSLKPEDTAVYYCAAYNRIYGYHTLYYWGQGTQVTVST | high polyreactivity
QVQLVESGGGLVQAGRSLRLSCAASGRTFGYNPMGWYRQAPGKEREFVAAISYSGTSTYYADSVKGRFTISRDNAKNTVYLQMNSLKPEDTAVYYCNAEALISWRYDYWGQGTQVTVSS | low polyreactivity
QVQLVESGGGLVQAGRSLRLSCAASGRTFPYNAMGWYRQAPGKERELVAAITWSGGSTYYADSVKGRFTISRDNAKNTVYLQMNSLKAEDTAVYYCNKDFPVFEYDYWGQGTQVTVSS | low polyreactivity
QVQLVESGGGLVQAGRSLRLSCAASGRTFPYNAMGWYRQAPGKESELVAAITSGGTTNYADSVKGRFTISRDNAKSTVYLQFNRLKPEDTAVYYCAADSDASSQFRRDYWGQGSQVTVSS | low polyreactivity
QVQLVESGGGLVQAGRSLRLSCAASGRTFRGYAMGWYRQAPGKERELVAAITWRGGSTYYADSVKGRFTISRDNGKNTVYLLMNSLKPEDCAVYYCNARQWPLAYEYWGLGTQVTVSS | high polyreactivity
QVQLVESGGGLVQAGRSLRLSCAASGRTFVFNAMGWYRQAPGKERELVARITLSGGSTYYADSVKGRFTISRDNAKNTVYLQMNSLKPEDTAVYYCAASHYFWFVQNDSDYWGQGTQVTVSS | low polyreactivity
QVQLVESGGGLVQAGRSLRLSCAASGRTLHQYDMGWFRQAPGKEREFVAVIDSSDGSTYYADSVKGRFTISRDNVKNTVYLQMNSLKPEDSAVYYCLGGYYYLQYDYWGQGTQVTVSS | low polyreactivity
QVQLVESGGGLVQAGRSLRLSCAASGRTYGIYAMGWYRQAPGKERQLVAAITWSGDSTYYADSVKGRFTISRDNAKNTVYLQMNSLKPEDTAVYYCAADYVGVTSVRYDYWGQGTQVTVSS | low polyreactivity
QVQLVESGGGLVQAGRSLRLSCAASGSIFRIYAMGWYGQAPGKERELVAAITWSGGGTYYADSVKGRFTNSRDNAKNTVYLQMYSLKPEDTAVYYCAADYWGYDIYYGLSERESWGQGTQVTVSS | high polyreactivity
QVQLVESGGGLVQAGRSLRLSCAASGSNFLTNTMGWYRQAPGKERELVAAITLRGGRTYYADSVKGRFTISRDNAKNTVYLHMNSLKPEDTAVYYCNARNYYYPSDRDYWGQGTQVTGSS | low polyreactivity
QVQLVESGGGLVQAGRSLRLSCAASGSTFDQYDMGWYRQAPGKERELVAAISQSGDRTYYADSVKARFTISRDYAKTTVYLQMNSLQPDDTAVYYCADDGVSQDYYYRYDYWGQCTQVTVSS | low polyreactivity
QVQLVESGGGLVQAGRSLRLSCAASGSTLQNNGMGWYRQAPGKERELVAAISIGGDTNYADSVKGRFTISRDNAKNTEMNSMKPEDTAGYYCNTDYFGSQVVVIFDFWGQGTQVTVSS | low polyreactivity
QVQLVESGGGLVQAGRSLRLSCAASGSTSERYDMGWYRQAPGKERELVATITWSGGDTHYADSVKGRFTISRDNAKNSVYLQLNSLKPEDTAVYYCAAEYTFVWGMWYDYWGQGTQVTVSS | low polyreactivity
QVQLVESGGGLVQAGRSLRLSCAASVSIFRPNAMGWYRQAPGKERDLVAAISSSGGSTYYSDSVKGRFTISRDNAKNTVYLQMNSLKPDDTAVYYCAAESLSTWIHSRDSWGQGTQVTVSS | low polyreactivity

Sequence | polyreactivity (PSR sort gate)
QVQLVESGGGLVQAGRSLRLSCPASGSIFIIYAMGWYRQQPGKERELVAAISASGGITYYADSVKGRFTISRDNAKNTVYLQMNRLKPEDTAVYYCAARRYRYFWVPRPYDYWGQGTQVTVSS | high polyreactivity
QVQLVESGGGLVQAGRSLRLSSAASGSIVAPNPMGWYRQAPGKEREYVAAITLDDGRTYYADSVKGRFTISRDNSNNTVYLHMNSRKPEDTAVYYCNAEWRGYSVYWRTRYDSWGQGTHVTVSS | low polyreactivity
QVQLVESGGGLVQAGRSLRLSSAASGSTFYYNPMGWYRQAPGKERELVAAISGGDSTYYADSVKGRFTISRDNAKNTVYLQMNSMKPEDTAVYYCAAASRRRSDGRRYGYWGQGTQVTVSS | high polyreactivity
QVQLVESGGGLVQAGRSLRLTCAASGRTFWWYAMGWYRQAPGKEWEFVAAISQRGTSTYYADSVKGRFTISRDNAKNTVYLQMNSLKPEDTAVYDCAATVYPSWYVLFTARRMDYWGQGTQVTVSS | high polyreactivity
QVQLVESGGGLVQAGRSLRVRCAASGSTFGLYAKGWYRQAPGKERELVADITWSGGTTYYADSVMGRFTFSRDNAKNTVYLEINSLKPEDTAVYYCAARYPWVYDDFDYWGQGTQVNVSS | low polyreactivity
QVQLVESGGGLVQAGSSLRLSCAASGSTFVNNAMGWYRQAPGKERELVAAITSGGSTNYADSVKGRFTISRDNAKNTVYLQMNSLKPEDTAVYYCNADGDSWYTGIPAVSHGYWGQGTQVTVSS | low polyreactivity
QVQLVESGGGLVQAGVSHRLSCAASGSIYYYYAMGWYRQAPGKESELVAGITTSGGSTYYAESVKVRFTISRDNAKNTVYLQMISLKPEDNAVYYCAAYDYISSTYFLDDYWGQGTQVTVSS | low polyreactivity
QVQLVESGGGLVQAGVSLLLSCAATGIIFSYYAMGWYRQAPGKERELVAAISWNSGSTYYADSVKGRFTISRDNAKNTVYLQMNSLKPEDTAVYYCAAESYYSYSYYRPYEYYYWGQGNQVTVSS | high polyreactivity
QVQLVESGGGLVQAGVSLLLTCAASGRISFRYAMVWYRQAPGKERELVAAINRGGITNYADSVKGRFTISRDNAKNTVYLKMNSLKKEDTAVYYCAARYASPRYKSKMDYWGQGTQVTVSS | high polyreactivity
QVQLVESGGGLVQAGVSLPLSCAASGIIFFSYAMGWYRPAPGKERELVAAITSRGTSTYYADSVKGRFTISRDNAKNTVYLQLISLKPEDTAVYYCAARWLWRASKVDYWGQGTQVTLSS | high polyreactivity
QVQLVESGGGLVQAGVSLRFSCAASGYIFDVNALGWYRQEPGKERELVAAISQRGTRTYYADSVKGRFTITRDNANNTVFLQMNSLKPEYTAVYYCNRGGWRQYDSWGQGTQVTVSS | high polyreactivity
QVQLVESGGGLVQAGVSLRLICAASGRTFGRSVMGWYRQAPGKERELVAAITSSSSSTYADSVKGRFTISRDNAKNTVYVQMNSLKPEDTEVYYCNKRYPSRHLPEYDYWGQGTQVSVSS | high polyreactivity
QVQLVESGGGLVQAGVSLRLSCAASASTFSIYAMGWYRHAPGKERELVAAIDSGGRTKYADSVKGRFTISRDNAKNPVYLQMNSLKPEDTAVYYWAAVFRGWWLYDYWGLGTQVTVSS | low polyreactivity
QVQLVESGGGLVQAGVSLRLSCAASGFILDYNTMGWYRQAPGKERELVAAISSSGDTTYYADSVKGRFTISRDNAKNTVYLQMNSLKREDTAVYYCAREYGVGYEYWGLGTQVTVSS | low polyreactivity
QVQLVESGGGLVQAGVSLRLSCAASGFTFGRYAMGWYRQAPGKERELVAAISNSGGSTYYADSVKGRFTISRDNAKNTVYLQMNSLKPEATAVYYCAARDSYWSVYYWGQGTQVTVSS | high polyreactivity
QVQLVESGGGLVQAGVSLRLSCAASGLIFGQNAMGWYRQAPAKERELVAAISQRGGTYYADSVKGRFTISRDNSKNTVYLQMNSLKPEDTAVYYCAARVGLQPGRYYLRYDYWGQGTQVTVSS | low polyreactivity
QVQLVESGGGLVQAGVSLRLSCAASGLIFWAYAMGWYRQAPGKERELVAAINSGGRTYYADSVKGRFTISRDNAKNTVYLQMNSLKPEDTAVYYCAAAGVYSSDYWGQCTQVTVSS | low polyreactivity
QVQLVESGGGLVQAGVSLRLSCAASGNTFGLYAMGWYRQAPGKEREFVADITTDGGTTYYADSVKGRFTISRDNAKNTVYLQMNSLKPEDTAVYYCAKLGTFGQHQYDYWGQGTQVTVSS | low polyreactivity
QVQLVESGGGLVQAGVSLRLSCAASGRIFIVYAMGWYRQAPGKERELVAAISWRGGNTYYADSVKARFTISRDNAKNTVYLQMNSLKPEDTAVYYCAARQYGTAAFDYWGQGTQVTVSS | high polyreactivity
QVQLVESGGGLVQAGVSLRLSCAASGRIFPSYAMGWYRQAPGKEREMVAAITSSDSTYYADSVKGRFTISRDNAKNTVYLQMNSLKPDDTAVYYCAAAYSYSGWWWFGYWGQGTQVTVSS | high polyreactivity
QVQLVESGGGLVQAGVSLRLSCAASGSIFDVYAMGWYRQAPGKERELVATISYGDSSTYYADSVKGRFTISRDNAKNTVYLQMNSLKPEDTAVYYCAADYLTAPRWRQWGEMDYWGQGTQVTVSS | low polyreactivity
